Values belong to the binder of their own block, whether it stands above or below them. Bridges are numbered along the chain shown (N, C = ends). Where no end group is shown, it is not given here. [ ]: non-standard residue; d: D form. GluOMe = glutamic acid methyl ester; R8 = C=CCCCCCC[C@@](C)(N)C(=O)O; S5 = C=CCCC[C@](C)(N)C(=O)O; Aib = CC(C)(N)C(=O)O
Legend:
[1] = target: T1, CC2-LZ domain of NEMO (mouse CC2-LZ) (mouse, UniProt O88522 251-337, limits assumed); experiment: fluorescence polarization, labelled peptide fixed at 0.1 µM, CC2-LZ titrated
T1 construct: domain: CC2-LZ; The methods say that the mouse CC2-LZ was used in the fluorescence anisotropy assay; also called NOA; UBAN
Description: (§1) Anisotropy data were calculated using the Magellan software version 6.5. Prior experiments, the mouse CC2-LZ was extensively dialyzed in binding buffer containing 20 mM HEPES pH 7.4, 100 mM NaCl, and 0.05% P20 detergent (v/v). All experiments were performed in a 384 well plate (vol 25 μl) at room temperature. The BODIPY®-labeled peptide concentrations were fixed at 0.1 or 10 μM whereas the CC2-LZ concentration varied from 0 to 100 μM. Reference calibrated at 22 mP, was based on the fluorescence of the peptide alone. Each experimental binding curve was determined from at least 10 independent concentration points. The G-factor was calculated as previously described in Agou et al. [7], with a value of 0.75, which was observed constant within 5% upon all titrations. For analysis, the blank value corresponding to the value of buffer alone, was subtracted from all titration data. The integration time was 20 μs. Experiments were done in duplicate, and the KD was estimated by fitting the anisotropy data with the rectangular hyperbolic binding equation, using KaleidaGraph software as described elsewhere [1].
(§2) For each peptide titration, various concentration of the target ranging from 0 to 100 μM and a fixed concentration of peptide at 0.1 or 10 μM were used at 25° C. […] For these reasons, all further titration experiments were performed with a fixed peptide concentration of 0.1 μM unless otherwise indicated.

[2] = target: T1, CC2-LZ domain of NEMO (mouse CC2-LZ); experiment: fluorescence polarization, labelled peptide fixed at 10 µM, CC2-LZ titrated
Description: as §1, §2

[3] = target: T2, NEMO (NF-kB essential modulator) in 70Z3-C3 pre-B lymphocytes (UniProt O88522 1-412, limits assumed); experiment: cell-based or functional assay
[4] = target: NEMO (NF-kB essential modulator), human, in DLBCL cell lines (human, UniProt Q9Y6K9 1-419); experiment: cell-based or functional assay
[5] = target: T1, CC2-LZ domain of NEMO (mouse CC2-LZ); experiment: fluorescence polarization, labelled peptide, CC2-LZ titrated
[6] = target: T2, NEMO (NF-kB essential modulator) in …; experiment: cell-based or functional assay; remark: listed apart in the source

T2 sequence (O88522 whole entry): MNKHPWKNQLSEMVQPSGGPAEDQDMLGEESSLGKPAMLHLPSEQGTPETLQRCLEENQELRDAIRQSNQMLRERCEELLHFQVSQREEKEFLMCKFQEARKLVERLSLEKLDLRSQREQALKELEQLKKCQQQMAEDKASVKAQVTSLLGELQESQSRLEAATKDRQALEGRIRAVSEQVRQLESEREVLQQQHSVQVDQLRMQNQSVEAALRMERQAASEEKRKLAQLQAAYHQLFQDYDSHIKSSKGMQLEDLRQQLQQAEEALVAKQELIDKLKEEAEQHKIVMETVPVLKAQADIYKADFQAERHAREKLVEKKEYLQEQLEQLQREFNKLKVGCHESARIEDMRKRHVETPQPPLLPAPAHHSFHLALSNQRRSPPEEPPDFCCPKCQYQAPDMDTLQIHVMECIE
Chain of NEMO (NF-kB essential modulator), human, in DLBCL cell lines (Q9Y6K9 whole entry, the tested form may be a part): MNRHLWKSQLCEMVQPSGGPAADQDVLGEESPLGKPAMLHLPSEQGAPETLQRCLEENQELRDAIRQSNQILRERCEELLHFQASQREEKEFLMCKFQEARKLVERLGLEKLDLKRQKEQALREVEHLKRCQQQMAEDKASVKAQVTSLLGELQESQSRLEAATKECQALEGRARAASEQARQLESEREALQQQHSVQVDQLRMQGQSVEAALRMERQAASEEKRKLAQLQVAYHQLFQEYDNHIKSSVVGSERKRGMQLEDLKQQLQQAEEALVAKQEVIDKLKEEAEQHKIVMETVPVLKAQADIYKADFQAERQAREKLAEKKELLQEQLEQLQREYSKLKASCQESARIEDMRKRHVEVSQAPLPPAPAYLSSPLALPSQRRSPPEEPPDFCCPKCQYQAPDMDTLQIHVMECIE
T1 sequence (O88522 251-337 limits assumed): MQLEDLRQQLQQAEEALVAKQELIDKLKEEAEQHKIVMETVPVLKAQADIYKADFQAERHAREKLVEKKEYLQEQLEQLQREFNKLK

Binder: CLK[Aib]Q[Aib]DIYK[Aib]RFQ[Aib]ERH[Aib]REK (also: extra N-terminal Cys carries BODIPY or FITC label (not settled)) [UBI-AIB]
Kd [1]: > 10000 µM
Kd [2]: > 10000 µM

B3: A-UBI-SAHN A303-A310, conformer B (peptide)
peptide: Ac-CRQIKIWFQNRRMKWKKLK[R8]QADIYK[S5]RFQAERHAREK-NH2
modifications: staple 20-27; also: Cys1 thiol labelled with BODIPY or FITC (which one not fixed), conformer B
notes: With N-terminal antennapedia
Kd [1]: 0.02 µM
IC 50(µM), NF-κB inhibition in LPS-stimulated 70Z3-C3 lacZ reporter cells [3]: 0.6 µM

Binder: RQIKIWFQNRRMKWKKLKAQA[R8]IYKARF[S5]AERHAREK (staple 22-29; also: staple conformer not given here) [A-UBI-SAHN D306-Q313 (conformer not stated)]
EC50 of cell death, HLY1 cells, depending on incubation time [4]: 0.65 to 1.1 µM
EC50 of cell death, OCY-Ly3 cells, 7 h [4]: 2.6 µM
EC50 of cell death, OCY-Ly3 cells, 24 h [4]: 2.1 µM
EC50 of cell death, OCY-Ly3 cells, 48 h [4]: 5 µM

B6: UBI-SAHN D306-A310 (peptide)
peptide: Ac-CLKAQA[S5]IYK[S5]RFQAERHAREK
modifications: staple 7-11; also: N-terminal Cys labelled with BODIPY or FITC, which one is not given here
notes: Stapled i,i+4; also called D306 R8-A310 S5
Kd [1]: 85 µM

Binder: LKAQA[S5]IYK[S5]RFQAQRHARQK (staple 6-10) [UBI-SAHN D306-A310 with the double substitution Glu-Gln (E315Q E320Q)]
IC50, NF-κB inhibition in 70Z3-C3 reporter cells [6]: 1.3 µM

B9: UBI-SAHN D306-Q313 Q/Q (peptide)
peptide: Ac-CLKAQA[R8]IYKARF[S5]AQRHARQK
modifications: staple 7-14; not fully specified (C-terminus); printed as LKAQAX2IYKARFX5AQRHARQK; also: extra N-terminal Cys labelled with BODIPY or FITC, staple cis/trans isomer not given here
notes: also called D306 R8-Q313 S5 E315Q E320Q
Kd [5]: 23 µM
IC50, NF-κB inhibition in 70Z3-C3 reporter cells [6]: 0.8 µM

B11: Co-UBI-SAHN I307-A314, conformer B (peptide)
peptide: Ac-CELAQLQAELD[R8]VQAVVQ[S5]DKQELRKL
modifications: staple 12-19; not fully specified (C-terminus); also: extra N-terminal Cys labelled with BODIPY or FITC (label not settled), staple isomer B (trans)
notes: 26 aa control peptide; also called Co-SAHN I307-A314 (B)
Kd [2]: > 10000 µM

B12: UBI-SAHN A303-I307 (peptide)
peptide: Ac-CLK[S5]QAD[S5]YKARFQAERHAREK
modifications: staple 4-8; also: N-terminal Cys thiol labelled with BODIPY or FITC (BODIPY FL maleimide)
notes: Stapled i,i+4; also called A303 S5-I307 S5
Kd [1]: ~360 µM

Continued, values first:

Kd [1]: 0.05 µM
B1: A-UBI-SAHN D306-Q313, conformer B (peptide)
peptide: Ac-CRQIKIWFQNRRMKWKKLKAQA[R8]IYKARF[S5]AERHAREK-NH2
modifications: staple 23-30; also: extra N-terminal Cys labelled with BODIPY or FITC (label not settled), staple isomer B (trans)
notes: With N-terminal antennapedia; also called A-UBI-SAHND306-Q313 (B)

Kd [2]: > 10000 µM
B2: Co-UBI-SAHN I307-A314, conformer A (peptide)
peptide: Ac-CELAQLQAELD[R8]VQAVVQ[S5]DKQELRKL
modifications: staple 12-19; not fully specified (C-terminus); also: extra N-terminal Cys labelled with BODIPY or FITC (label not settled), staple isomer A (cis)
notes: 26 aa control peptide; also called Co-SAHN I307-A314 (A); I307 R8-A314 S5

Kd [1]: 0.3 µM
B4: A-UBI-SAHN A303-A310, conformer A (peptide)
peptide: Ac-CRQIKIWFQNRRMKWKKLK[R8]QADIYK[S5]RFQAERHAREK-NH2
modifications: staple 20-27; not fully specified; also: conformer A
notes: With N-terminal antennapedia; also called A-UBI-SAHNA303-A310 (A)

Kd [5]: 0.06 µM
B5: A-UBI-SAHN D306-Q313 OMe (peptide)
peptide: Ac-CRQIKIWFQNRRMKWKKLKAQA[R8]IYKARF[S5]A[GluOMe]RHAR[GluOMe]K-NH2
modifications: staple 23-30; also: N-terminal Cys labelled with BODIPY or FITC, which one is not given here

Kd [1]: 5 µM
Kd [2]: 24 µM
IC 50(µM), NF-κB inhibition in LPS-stimulated 70Z3-C3 lacZ reporter cells [3]: 1.5 µM
Binder: CRQIKIWFQNRRMKWKKLK[Aib]Q[Aib]DIYK[Aib]RFQ[Aib]ERH[Aib]REK (also: N-terminal Cys labelled with BODIPY or FITC) [A-UBI-AIB]

Kd [1]: 0.06 µM
IC 50(µM), NF-κB inhibition in LPS-stimulated 70Z3-C3 lacZ reporter cells [3]: 0.6 µM
B7: A-UBI-SAHN D306-Q313, conformer A (peptide)
peptide: Ac-CRQIKIWFQNRRMKWKKLKAQA[R8]IYKARF[S5]AERHAREK-NH2
modifications: staple 23-30; also: extra N-terminal Cys labelled with BODIPY or FITC (label not settled), staple isomer A (cis)
notes: With N-terminal antennapedia; also called A-UBI-SAHND306-Q313 (A)

Kd [1]: 211 µM
B8: UBI-SAHN A303-A310, conformer B (peptide)
peptide: Ac-CLK[R8]QADIYK[S5]RFQAERHAREK
modifications: staple 4-11; not fully specified (C-terminus); also: extra N-terminal Cys labelled with BODIPY or FITC (label not settled), staple isomer B (trans)
notes: also called UBI-SAHNA303-A310 (B)

Kd [1]: 0.2 µM
Kd [2]: 21 µM
IC 50(µM), NF-κB inhibition in LPS-stimulated 70Z3-C3 lacZ reporter cells [3]: 0.43 µM
B10: A-UBI-SAHN A310-A314 (peptide)
peptide: Ac-CRQIKIWFQNRRMKWKKLKAQADIYK[S5]RFQ[S5]ERHAREK-NH2
modifications: staple 27-31; also: N-terminal Cys thiol labelled with BODIPY or FITC (BODIPY FL maleimide)
notes: Stapled i,i+4 with N-terminal antennapedia

Kd [5]: 24 µM
IC50, NF-κB inhibition in 70Z3-C3 reporter cells [6]: 1.9 µM
B13: UBI-SAHN D306-Q313 OMe (peptide)
peptide: Ac-CLKAQA[R8]IYKARF[S5]A[GluOMe]RHAR[GluOMe]K
modifications: staple 7-14; also: N-terminal Cys labelled with BODIPY or FITC (which one not given here)
notes: also called D306 R8-Q313 S5 E315MeGlu E320MeGlu

Kd [1]: ~360 µM
B14: UBI-SAHN A310-A314 (peptide)
peptide: Ac-CLKAQADIYK[S5]RFQ[S5]ERHAREK
modifications: staple 11-15; also: N-terminal Cys thiol labelled with BODIPY or FITC (BODIPY FL maleimide)
notes: Stapled i,i+4; also called A310S5-A314 S5

Kd [1]: 76 µM
B15: UBI-SAHN A303-A310, conformer A (peptide)
peptide: Ac-CLK[R8]QADIYK[S5]RFQAERHAREK
modifications: staple 4-11; not fully specified (C-terminus); also: extra N-terminal Cys labelled with BODIPY or FITC (label not settled), staple isomer A (cis)
notes: also called UBI-SAHNA303-A310 (A); A303 R8-A310 S5

From patent US20220025002A1 (INSTITUT PASTEUR, published 2022)
